Assay results reported in patent US20240366624A1 (WASHINGTON UNIVERSITY, published 2024).

T1: recombinant human ERO1α (endoplasmic reticulum oxidoreductase 1α), wild type (human, UniProt Q96HE7 24-468, biotinylated when coupled to the bio-layer interferometry biosensor (site not stated))
T1 construct: also called wtERO1α; biotinylated ERO1α
T1 sequence (looked up): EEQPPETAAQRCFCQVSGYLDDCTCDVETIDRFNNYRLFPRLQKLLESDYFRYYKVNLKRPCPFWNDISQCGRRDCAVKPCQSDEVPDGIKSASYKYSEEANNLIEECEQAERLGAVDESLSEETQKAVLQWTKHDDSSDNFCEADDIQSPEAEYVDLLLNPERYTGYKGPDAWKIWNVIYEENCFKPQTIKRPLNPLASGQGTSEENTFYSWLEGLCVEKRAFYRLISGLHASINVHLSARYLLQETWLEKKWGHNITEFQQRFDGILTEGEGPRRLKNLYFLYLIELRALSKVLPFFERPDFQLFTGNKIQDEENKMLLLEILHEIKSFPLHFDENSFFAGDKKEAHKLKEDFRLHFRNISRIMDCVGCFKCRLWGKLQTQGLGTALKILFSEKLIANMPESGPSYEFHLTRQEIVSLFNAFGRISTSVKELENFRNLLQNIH


Columns and labels:
[1] = target: T2, human platelet STIM1 (stromal interaction molecule 1) (human, UniProt Q13586 23-685); assay: co-immunoprecipitation of ERO1α from lysates of resting and thrombin-activated human platelets, mass spectrometry; volcano plot thrombin versus no thrombin
T2 construct: Co-immunoprecipitated with ERO1α

[2] = target: T3, human platelet SERCA2 (sarco/endoplasmic reticulum Ca2+ ATPase 2) (human, UniProt P16615 1-1042, limits assumed); assay: as above
T3 construct: Co-immunoprecipitated with ERO1α

[3] = target: T4, human platelet PDI (protein disulfide isomerase) (human, UniProt P07237 18-508); assay: immunoprecipitation of PDI from lysates of resting and thrombin-treated human platelets, immunoblot with anti-ERO1α, densitometry
T4 construct: Immunoprecipitated with biotinylated polyclonal anti-PDI antibodies
Protocol: FIG. 1(A-D) is an exemplary embodiment of PDI interacting with ERO1α in platelets in accordance with the present disclosure. Human platelets were treated with or without thrombin for 5 minutes and immunoprecipitated with biotinylated polyclonal anti-PDI antibodies or control IgG. After trypsin digestion, mass spectrometric analysis was conducted. […] FIG. 1B: Examples of the identification of the tryptic peptides […] (SEQ ID NO: 1) and […] (SEQ ID NO: 2) from ERO1α in which the parent ion is observed at 521.77 and 753.37 m/z, respectively, and the parent ion mass error is 4.3 and 3.5 ppm, respectively. FIG. 1C: The peptide sequences of ERO1α that were detected after trypsin digestion. FIG. 1D: After immunoprecipitation with antibodies, the bound fraction was immunoblotted with the indicated antibodies, followed by densitometry (the band density of ERO1a/that of PDI). The data represent the mean±SD (n=3). P value determined by unpaired Student's t-test.

[4] = target: T1, recombinant human ERO1α (endoplasmic …); assay: bio-layer interferometry, biotinylated ERO1α on the biosensor, STIM1 in solution
Source text: PDI is reported to localize in the DTS of platelets. […] It is reported that deletion of platelet STIM1 reduces Ca²⁺ store content in the DTS and SOCE. Thus, ERO1α regulation of STIM1 function was investigated. Bio-layer interferometry was first performed using a biosensor coupled with biotinylated ERO1α and a different concentration of WT or mutant STIM1 in which Cys49 and Cys56 residues were mutated to Ser49 and Ser56 (mutant STIM1 [mSTIM1]-Cys49/56Ser).

T4 sequence (P07237 18-508 limits assumed): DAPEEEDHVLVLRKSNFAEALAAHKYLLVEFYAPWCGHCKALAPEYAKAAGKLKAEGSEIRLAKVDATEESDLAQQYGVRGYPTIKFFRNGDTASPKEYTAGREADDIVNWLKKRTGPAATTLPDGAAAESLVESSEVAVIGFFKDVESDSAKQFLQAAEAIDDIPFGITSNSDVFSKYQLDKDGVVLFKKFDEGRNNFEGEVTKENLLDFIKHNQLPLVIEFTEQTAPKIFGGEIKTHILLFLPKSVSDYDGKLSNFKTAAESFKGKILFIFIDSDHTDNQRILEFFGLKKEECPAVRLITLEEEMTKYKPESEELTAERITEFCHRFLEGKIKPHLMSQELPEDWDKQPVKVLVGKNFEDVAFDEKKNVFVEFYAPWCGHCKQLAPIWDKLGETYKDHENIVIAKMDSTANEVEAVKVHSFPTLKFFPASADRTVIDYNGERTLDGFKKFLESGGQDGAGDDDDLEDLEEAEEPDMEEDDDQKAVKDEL
T3 sequence (P16615 whole entry): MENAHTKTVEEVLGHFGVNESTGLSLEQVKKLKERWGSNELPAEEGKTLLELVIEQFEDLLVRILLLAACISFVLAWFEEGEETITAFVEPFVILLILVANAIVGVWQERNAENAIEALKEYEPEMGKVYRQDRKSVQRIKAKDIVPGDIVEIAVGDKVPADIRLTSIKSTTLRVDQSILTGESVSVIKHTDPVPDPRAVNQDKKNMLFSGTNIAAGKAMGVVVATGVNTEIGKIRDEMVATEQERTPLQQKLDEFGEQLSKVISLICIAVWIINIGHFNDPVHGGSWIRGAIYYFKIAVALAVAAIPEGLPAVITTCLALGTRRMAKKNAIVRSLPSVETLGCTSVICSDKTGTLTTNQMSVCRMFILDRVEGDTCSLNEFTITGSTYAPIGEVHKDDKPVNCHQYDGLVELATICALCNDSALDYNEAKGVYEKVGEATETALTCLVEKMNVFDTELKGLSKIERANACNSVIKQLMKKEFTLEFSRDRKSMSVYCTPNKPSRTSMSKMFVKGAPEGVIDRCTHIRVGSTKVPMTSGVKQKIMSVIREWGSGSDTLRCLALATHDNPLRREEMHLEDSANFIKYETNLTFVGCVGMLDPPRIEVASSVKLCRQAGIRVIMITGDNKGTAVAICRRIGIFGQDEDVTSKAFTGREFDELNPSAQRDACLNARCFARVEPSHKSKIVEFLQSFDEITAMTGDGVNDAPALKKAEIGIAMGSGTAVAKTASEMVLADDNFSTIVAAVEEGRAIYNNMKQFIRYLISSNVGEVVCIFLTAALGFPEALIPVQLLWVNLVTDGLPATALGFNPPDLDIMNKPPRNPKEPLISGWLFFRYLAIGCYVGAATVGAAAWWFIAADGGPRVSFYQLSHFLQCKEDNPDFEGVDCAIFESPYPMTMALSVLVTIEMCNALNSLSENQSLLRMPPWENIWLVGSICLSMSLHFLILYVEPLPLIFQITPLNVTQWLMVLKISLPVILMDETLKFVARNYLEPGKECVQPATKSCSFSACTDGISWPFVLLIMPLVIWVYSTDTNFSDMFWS

Row | binding result [1] | binding result [2] | binding result [3] | Kd [4] | Binder
1 | binds | binds | binds | – | human platelet ERO1α (enzyme, UniProt Q96HE7 24-468, looked up, Endogenous protein in platelet lysates (immunoprecipitation, immunoblot)) EEQPPETAAQRCFCQVSGYLDDCTCDVETIDRFNNYRLFPRLQKLLESDYFRYYKVNLKRPCPFWNDISQCGRRDCAVKPCQSDEVPDGIKSASYKYSEEANNLIEECEQAERLGAVDESLSEETQKAVLQWTKHDDSSDNFCEADDIQSPEAEYVDLLLNPERYTGYKGPDAWKIWNVIYEENCFKPQTIKRPLNPLASGQGTSEENTFYSWLEGLCVEKRAFYRLISGLHASINVHLSARYLLQETWLEKKWGHNITEFQQRFDGILTEGEGPRRLKNLYFLYLIELRALSKVLPFFERPDFQLFTGNKIQDEENKMLLLEILHEIKSFPLHFDENSFFAGDKKEAHKLKEDFRLHFRNISRIMDCVGCFKCRLWGKLQTQGLGTALKILFSEKLIANMPESGPSYEFHLTRQEIVSLFNAFGRISTSVKELENFRNLLQNIH
2 | – | – | – | 2600 nM | wild type STIM1, recombinant (other, UniProt Q13586 23-213, looked up, also called wtSTIM1; WT STIM1) LSHSHSEKATGTSSGANSEESTAAEFCRIDKPLCHSEDEKLSFEAVRNIHKLMDDDANGDVDVEESDEFLREDLNYHDPTVKHSTFHGEDKLISVEDLWKAWKSSEVYNWTVDEVVQWLITYVELPQYEETFRKLQLSGHAMPRLAVTNTTMTGTVLKMTDRSHRQKLQLKALDTVLFGPPLLTRHNHLKD
